Experimental data published in patent publication US20240352110A1 (ROCHE DIAGNOSTICS OPERATIONS, published 2024).

Molecular target: T1, Aβ42 (human, UniProt P05067 672-713)
T1 construct: range 672-713; In the Elecsys experiments it is the native Aβ42 of the plasma sample; also called Ab42; Abeta42
Assay: SPR (Biacore 8K+), antibody captured, Aβ42 injected, 37° C., Langmuir 1:1 fit
Protocol: Measurements were performed using the BIAcore™ 8K+ instruments. Aβ-42 concentration series ranging from 1.2 nM to 900 nM were injected at […]. The association phase was monitored for 3 min, the dissociation phase between 5 min to 10 min at 37° C.
The measurements were performed using PBS-DT+, pH7.4 (10 mM phosphate buffer, 2.7 mM KCl, 137 mM NaCl. 5% DMSO, 0.05% Tween 20) as running buffer.
The kinetic rate constants and the dissociation equilibrium constants KD were calculated using a Langmuir 1:1 fit model according Scrubber Version 2.0.c.

T1 sequence (P05067 672-713 limits assumed, form in doubt): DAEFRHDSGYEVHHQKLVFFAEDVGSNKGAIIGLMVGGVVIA

B1: Mouse anti Aβ-42 antibody 3.2.52 (IgG2b), expressed in hybridoma (antibody)
heavy: EVQLQQSGPELVKLGASVRVSCRTSGFTITEYTMHWVKQSHGKSLEWIGGINPITGGSRNNLKFKDKATLTGDKSSSTVYMDLRSLTSEGSTVNYCVRGRTMGPLDYWGQGTTLTVSSAKTTPPSVYPLAPGCGDTTGSSVTLGCLVKGYFPESVTVTWNSGSLSSSVHTFPALLQSGLYTMSSSVTVPSSTWPSQTVTCSVAHPASSTTVDKKLEPSGPISTINPCPPCKECHKCPAPNLEGGPSVFIFPPNIKDVLMISLTPKVTCVVVDVSEDDPDVRISWFVNNVEVHTAQTQTHREDYNSTIRVVSALPIQHQDWMSGKEFKCKVNNKDLPSPIERTISKIKGLVRAPQVYILPPPAEQLSRKDVSLTCLVVGFNPGDISVEWTSNGHTEENYKDTAPVLDSDGSYFIYSKLDIKTSKWEKTDSFSCNVRHEGLKNYYLKKTISRSPGK
light: not shown
notes: Full-length mouse IgG2b; Biotinylated when used as capture antibody in Elecsys assays; also called M-3.2.52; clone 3.2.52
Kd: 6.7 nM
MR (molar ratio): 0.7
koff: 0.0253 s⁻¹
kon: 3.8e+06 M⁻¹ s⁻¹
t/2 diss (complex half-life): < 1 min
